Data from patent US20220411483A1 (Chugai, published 2022).

Columns and labels:
[1] = target: T1, human FcγRIIa R type extracellular domain with C-terminal His tag (human, UniProt P12318 34-217); experiment: SPR, KD of IL6R-G1d/IL6R-L divided by KD of variant
T1 construct: extracellular domain; also called FcgRIIaR
T1 sequence (looked up): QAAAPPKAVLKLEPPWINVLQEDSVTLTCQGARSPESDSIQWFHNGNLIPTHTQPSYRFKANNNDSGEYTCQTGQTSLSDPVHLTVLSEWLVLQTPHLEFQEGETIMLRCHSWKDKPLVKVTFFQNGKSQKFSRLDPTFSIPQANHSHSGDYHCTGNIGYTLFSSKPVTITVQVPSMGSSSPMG

[2] = target: T2, human FcγRIIa H type extracellular domain with C-terminal His tag (human, UniProt P12318 34-217); experiment: as above
T2 construct: extracellular domain; also called FcgRIIaH
T2 sequence (looked up): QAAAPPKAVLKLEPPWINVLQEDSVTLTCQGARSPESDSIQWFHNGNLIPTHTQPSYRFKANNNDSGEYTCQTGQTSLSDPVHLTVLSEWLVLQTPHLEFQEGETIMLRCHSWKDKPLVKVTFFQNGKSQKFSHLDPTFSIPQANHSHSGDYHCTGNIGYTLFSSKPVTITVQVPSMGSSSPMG

[3] = target: T3, human FcγRIIb extracellular domain with C-terminal His tag (human, UniProt P31994 43-217); experiment: as above
T3 construct: extracellular domain; also called FcgRIIb
T3 sequence (looked up): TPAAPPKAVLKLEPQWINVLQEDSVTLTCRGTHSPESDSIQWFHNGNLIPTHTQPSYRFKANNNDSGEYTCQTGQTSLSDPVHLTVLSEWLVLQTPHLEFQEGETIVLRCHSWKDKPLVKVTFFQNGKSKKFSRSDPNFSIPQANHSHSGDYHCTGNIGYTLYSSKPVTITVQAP

[4] = target: T4, human FcγRIa extracellular domain with C-terminal His tag (human, UniProt P12314 16-292); experiment: as above
T4 construct: Whole entry named; also called FcgRIa
T4 sequence (P12314 16-292): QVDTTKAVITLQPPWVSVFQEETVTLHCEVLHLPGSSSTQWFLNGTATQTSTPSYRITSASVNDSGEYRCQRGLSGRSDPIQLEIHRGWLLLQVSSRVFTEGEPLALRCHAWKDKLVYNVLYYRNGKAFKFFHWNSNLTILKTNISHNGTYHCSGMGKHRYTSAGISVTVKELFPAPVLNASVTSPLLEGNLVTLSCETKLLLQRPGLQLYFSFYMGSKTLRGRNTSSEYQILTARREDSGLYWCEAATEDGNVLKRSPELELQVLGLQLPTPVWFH

[5] = target: T5, human FcγRIIIa V type extracellular domain with C-terminal His tag (human, UniProt P08637 17-208); experiment: as above
T5 construct: extracellular domain; also called FcgRIIIaV
T5 sequence (P08637 17-208 F176V): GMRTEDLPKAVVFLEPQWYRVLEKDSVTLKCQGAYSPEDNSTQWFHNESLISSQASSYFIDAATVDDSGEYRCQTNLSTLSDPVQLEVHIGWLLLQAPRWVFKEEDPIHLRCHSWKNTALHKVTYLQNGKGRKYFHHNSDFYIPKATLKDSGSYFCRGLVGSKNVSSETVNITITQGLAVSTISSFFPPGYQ

[6] = target: T1, human FcγRIIa R type extracellular …; experiment: SPR, antibody captured, FcgR analyte
[7] = target: T3, human FcγRIIb extracellular domain with …; experiment: SPR, antibody captured, FcgR analyte
[8] = target: T4, human FcγRIa extracellular domain with …; experiment: SPR, antibody captured, FcgR analyte

Relative FcgRIIaR-binding Activity [1]	Relative FcgRIIaH-binding Activity [2]	Relative FcgRIIb-binding Activity [3]	Relative FcgRIa-binding Activity [4]	Relative FcgRIIIaV-binding Activity [5]	Kd [6]	Kd [7]	Kd [8]	Binder
0.48	0.026	21	0.188	0.008	2300 nM	100 nM	1.7 nM	IL6R-P757/IL6R-L (antibody, human IgG1, kappa) heavy: QVQLQESGPGLVKPSETLSLTCAVSGHSISHDHAWSWVRQPPGEGLEWIGFISYSGITNYNPSLQGRVTISRDNSKNTLYLQMNSLRAEDTAVYYCARSLARTTAMDYWGEGTLVTVSSASTKGPSVFPLAPSSKSTSGGTAALGCLVKDYFPEPVTVSWNSGALTSGVHTFPAVLQSSGLYSLSSVVTVPSSSLGTQTYICNVNHKPSNTKVDKKVEPKSCDKTHTCPPCPAPELLGGDSVFLFPPKPKDTLMISRTPEVTCVVIDVAEEDGEVKFNWYVDGVEVHNAKTKPREEQYNSTYRVVSVLTVLHQDWLNGKEYKCKVSNKGLPSSIEKTISKAKGQPREPQVYTLPPSRDELTKNQVSLTCLVKGFYPSDIAVEWESNGQPENNYKTTPPVLDSDGSFFLYSKLTVDKSRWQQGNVFSCSVMHEALHNHYTQKSLSLSP light: not shown
0.69	0.027	11.1	0.021	0.008	1600 nM	190 nM	15 nM	IL6R-P760/IL6R-L (antibody, human IgG1, kappa) heavy: QVQLQESGPGLVKPSETLSLTCAVSGHSISHDHAWSWVRQPPGEGLEWIGFISYSGITNYNPSLQGRVTISRDNSKNTLYLQMNSLRAEDTAVYYCARSLARTTAMDYWGEGTLVTVSSASTKGPSVFPLAPSSKSTSGGTAALGCLVKDYFPEPVTVSWNSGALTSGVHTFPAVLQSSGLYSLSSVVTVPSSSLGTQTYICNVNHKPSNTKVDKKVEPKSCDKTHTCPPCPAPELLGDDSVFLFPPKPKDTLMISRTPEVTCVVVDVSEEDGEVKFNWYVDGVEVHNAKTKPREEQYNSTYRVVSVLTVLHQDWLNGKEYKCKVSNKGLPSSIEKTISKAKGQPREPQVYTLPPSRDELTKNQVSLTCLVKGFYPSDIAVEWESNGQPENNYKTTPPVLDSDGSFFLYSKLTVDKSRWQQGNVFSCSVMHEALHNHYTQKSLSLSP light: not shown
0.32	0.021	3.8	0.052	0.007	3400 nM	550 nM	6.1 nM	IL6R-P762/IL6R-L (antibody, human IgG1, kappa) heavy: QVQLQESGPGLVKPSETLSLTCAVSGHSISHDHAWSWVRQPPGEGLEWIGFISYSGITNYNPSLQGRVTISRDNSKNTLYLQMNSLRAEDTAVYYCARSLARTTAMDYWGEGTLVTVSSASTKGPSVFPLAPSSKSTSGGTAALGCLVKDYFPEPVTVSWNSGALTSGVHTFPAVLQSSGLYSLSSVVTVPSSSLGTQTYICNVNHKPSNTKVDKKVEPKSCDKTHTCPPCPAPELLGGDSVFLFPPKPKDTLMISRTPEVTCVVVDVSHEDGEVKFNWYVDGVEVHNAKTKPREEQYNSTYRVVSVLTVLHQDWLNGKEYKCKVSNKGLPSSIEKTISKAKGQPREPQVYTLPPSRDELTKNQVSLTCLVKGFYPSDIAVEWESNGQPENNYKTTPPVLDSDGSFFLYSKLTVDKSRWQQGNVFSCSVMHEALHNHYTQKSLSLSP light: not shown
0.58	0.021	8.1	0.029	0.006	1900 nM	260 nM	11 nM	IL6R-P758/IL6R-L (antibody, human IgG1, kappa) heavy: QVQLQESGPGLVKPSETLSLTCAVSGHSISHDHAWSWVRQPPGEGLEWIGFISYSGITNYNPSLQGRVTISRDNSKNTLYLQMNSLRAEDTAVYYCARSLARTTAMDYWGEGTLVTVSSASTKGPSVFPLAPSSKSTSGGTAALGCLVKDYFPEPVTVSWNSGALTSGVHTFPAVLQSSGLYSLSSVVTVPSSSLGTQTYICNVNHKPSNTKVDKKVEPKSCDKTHTCPPCPAPELLGDDSVFLFPPKPKDTLMISRTPEVTCVVVDVSDEDGEVKFNWYVDGVEVHNAKTKPREEQYNSTYRVVSVLTVLHQDWLNGKEYKCKVSNKGLPSSIEKTISKAKGQPREPQVYTLPPSRDELTKNQVSLTCLVKGFYPSDIAVEWESNGQPENNYKTTPPVLDSDGSFFLYSKLTVDKSRWQQGNVFSCSVMHEALHNHYTQKSLSLSP light: not shown
0.79	0.024	14	0.058	0.005	1400 nM	150 nM	5.5 nM	IL6R-P759/IL6R-L (antibody, human IgG1, kappa) heavy: QVQLQESGPGLVKPSETLSLTCAVSGHSISHDHAWSWVRQPPGEGLEWIGFISYSGITNYNPSLQGRVTISRDNSKNTLYLQMNSLRAEDTAVYYCARSLARTTAMDYWGEGTLVTVSSASTKGPSVFPLAPSSKSTSGGTAALGCLVKDYFPEPVTVSWNSGALTSGVHTFPAVLQSSGLYSLSSVVTVPSSSLGTQTYICNVNHKPSNTKVDKKVEPKSCDKTHTCPPCPAPDLLGDDSVFLFPPKPKDTLMISRTPEVTCVVVDVSDEDGEVKFNWYVDGVEVHNAKTKPREEQYNSTYRVVSVLTVLHQDWLNGKEYKCKVSNKGLPSSIEKTISKAKGQPREPQVYTLPPSRDELTKNQVSLTCLVKGFYPSDIAVEWESNGQPENNYKTTPPVLDSDGSFFLYSKLTVDKSRWQQGNVFSCSVMHEALHNHYTQKSLSLSP light: not shown
1	0.036	17.5	0.04	0.008	1100 nM	120 nM	8 nM	IL6R-P761/IL6R-L (antibody, human IgG1, kappa) heavy: QVQLQESGPGLVKPSETLSLTCAVSGHSISHDHAWSWVRQPPGEGLEWIGFISYSGITNYNPSLQGRVTISRDNSKNTLYLQMNSLRAEDTAVYYCARSLARTTAMDYWGEGTLVTVSSASTKGPSVFPLAPSSKSTSGGTAALGCLVKDYFPEPVTVSWNSGALTSGVHTFPAVLQSSGLYSLSSVVTVPSSSLGTQTYICNVNHKPSNTKVDKKVEPKSCDKTHTCPPCPAPDLLGDDSVFLFPPKPKDTLMISRTPEVTCVVVDVSEEDGEVKFNWYVDGVEVHNAKTKPREEQYNSTYRVVSVLTVLHQDWLNGKEYKCKVSNKGLPSSIEKTISKAKGQPREPQVYTLPPSRDELTKNQVSLTCLVKGFYPSDIAVEWESNGQPENNYKTTPPVLDSDGSFFLYSKLTVDKSRWQQGNVFSCSVMHEALHNHYTQKSLSLSP light: not shown
